# Experimental data from the DeepSol protein solubility set.
# Test: soluble on expression in E. coli; label from the status in PepcDB or PDB records
row,Sequence,soluble on expression in E. coli
1,MGSDKIHHHHHHMKSTIYKALIGATLIIGLSSCVNNWLDVEPGDQVEADEAVTTSADLSSVRAGMYQIIKGTSDFKDYYAARMFYYGEVRGEDMQTEKSGSRSQLCYDMTYSTADNAPSIWQTPYIVIGRANRIIEAAESGKLTDKEEAADIIAQYAAEAKVARAMAHFDLVRVYGKTYTAPDAPNSLGIPVVTTVLGSDSKLIRNTVSEVYTQVIKDLNEAINSKALSESSTPGYINLWAAKALLSRVYLTQGDNQKSLDVAEDIIKNSPYKLWKNEEYVGAWSKISGVHSNEMLFEIAITGSTDWTDREGIAYLYNEDGYADIIATKKFLDLLNEDPNDVRLGVFLAPTTKDFKKLYGTNTVFLNKYPADGLSDLRYNNVPLVRLSEVYLNAAEAAAKLGNQNDKAVEYLDAIVKRANPNKTVKGTTVTVDRVLLERRKELIGEGHRFFDAMRNNETVIRYTSKEDQGWQQALKEEARSFNRDFYKTLLPIPQDEIDANPSMKDQQNTGY,not soluble
2,MGIGKEIRLERIMNRETRKTIIVPMDHGVSSGPIEGIVNIREAVEKVAEGGANAVVLHKGMVRAGHRGRGRDIGLIVHLSASTDLSPRKNDKVLVCTVEEAIRLGADAVSIHVNIGAEGEREMLKDFGYVSKVCEEWQMPLLAMVYGRGPKIENQYDPKVVAHCARVGAELGADIVKVPYTGDPETFKLAIEGSPIPVVIAGGPKMKSEREVLEMVQGAMQAGAAGLSIGRNIFQAKDPAKMVRAMSLIVHEGKSVEEAFEILK,not soluble
3,SNALANRIENVVSQERTRKKFESLVSDSPDGIVHLTTNGTILSVNPSMAGRLGADPDTLVGQQLSAVMDSEAANQRLEAGKSAVENGTATRSEDAVGGRHYHNQYIPVDSHRKSDTFQLVSRDIT,soluble
4,MASINLIKSLKLYKEKIWSFDFSQGILATGSTDRKIKLVSVKYDDFTLIDVLDETAHKKAIRSVAWRPHTSLLAAGSFDSTVSIWAKEESADRTFEMDLLAIIEGHENEVKGVAWSNDGYYLATCSRDKSVWIWETDESGEEYECISVLQEHSQDVKHVIWHPSEALLASSSYDDTVRIWKDYDDDWECVAVLNGHEGTVWSSDFDKTEGVFRLCSGSDDSTVRVWKYMGDDEDDQQEWVCEAILPDVHKRQVYNVAWGFNGLIASVGADGVLAVYEEVDGEWKVFAKRALCHGVYEINVVKWLELNGKTILATGGDDGIVNFWSLEKAA,soluble
5,MTLHEVPTILHRCGDCPIRHRAVCARCDSEELATLEQIKYYRSYQAGQTVIWSGDKMDFVASVVTGIATLTQTMEDGRRQMVGLLLPSDFVGRPGRQTVAYDVTATTDLLMCCFRRKPFEEMMQKTPHVGQRLLEMTLDELDAAREWMLLLGRKTAREKIASLLAIIARRDAALKLRESNGPMTFDLPLTREEMADYLGLTLETVSRQVSALKRDGVIALEGKRHVIVTDFARLLEEAGDDSDGGLPV,not soluble
6,MSLQPSQRVVLSHLVHGGWDEIAHSSLRPEIRGFKRTREVARSLLARRLPIYSAVFTGDCLFGNHPLLRPIGIHMQNVQAGNLLVSSTLVDGTVLNQAVCLMVHEDTEHAIGLMLNRPMQAMAGAITIQGTPQETPKIPRWNAEDLDETSEGDSTIDPSSDSIEHPVSGVPSVVISGDQKDQLAQQLLSGKLANGSSLHFGGPLSGPIVAVHSNRELAEAETGEGIFVAAQRENLEALMKSSDLPYRLIIGHLGWTAEQLENEIEEGIWHRIPATSDLLNSDDAMMWPRMIRRATANSVARWLDTTDVPGSAELNEGHHHHHH,soluble
7,HHHMFNAKYVAEATGNFITVMDALKLNYNAKDQLHPLLAELLISINRVTRDDFENRSKLIDWIVRINKLSIGDTLTETQIRELLFDLELAYKSFYALLD,soluble
8,MDENTRNLIKKVERSVFAGNRAAAAKELGEIGDFDAVPVLLKALEDSSSKVKAAASEALGEINDPDAVPCLMKMLDYPESYVKKAAIIALGKIGTQEAVSGIVKGFRDPDKLIRKESVKALMRIGSPEAVSGLTATFTCPDSPLKRISITALGKINTYEAACGLVKALEDPDNRVRQQAVETLGKRGISDVLEELMELLKDSRQPVQEAASEALCKIIGGSESVPVLVKALGASDRKVRKASIEALGKAGNSEAVSALLKELDDDDWYLRSRAADVLADIASPEAALGLVKALDLHDAPVRKLIVSALGKIGSPETIEGLVKALDDPDNSIREAATLGLGKTGKVEAVPGLLRALHDPKNTVQEAAATSLGDMKAREAVPEFLRILEDPDSLIHKSVIFSLEKIGTPEAVAGLSRALNNPDAMVRKAAAKSLEKIKKSGLPLEKAKNIEISGFNISE,not soluble
9,MGSDKIHHHHHHMTGRQFDIEPLMDEINKSLKQEVNYLTEAQNTDLVKRTLTADHYVVPKVYHDYTTETVLTQSFETGLSVNQWIRSNPSRSDIQNFSQLVIQLMIDEMLLTGVVQTDPNYANFLYRPDSRQLVLLDFGATWTYSTEFRHDIHKLSMALLSGEIDKLMVGIYTRGYLDTRESDETKAQLREVLRMIGDISANLPQPVALQVDVAHDEIRAAAHVMGRGIRHTTLHKDLVLIGRKLTGMLLLLKEINAIVDFNEVRAHISAIKV,not soluble
10,MGSDKIHHHHHHMSVCARPERPWDERDRERFMHRNKVVSREDWFQAHKAHLAREKELTRLRERVAAERRELPWLKVRKDYVFETEQGPKKLAELFANRSQLIVYHFVFAPGSTHHCESCAFVADHMDGANRHLRHHDVSLVTISRAPLVELLPYKQRMGWTFDWVSSYASDFNFDMQVSFTDRQIASGEAVYNFETPVLTSKDLPGTTVFYKGETGDIFLTFMSRARGSEQFIGAYQYLDIAPKGRDETGPYGTFMDWVRLHDEYGNRSQRDDVCP,not soluble
11,GSAASSALKGLIQQFTTITGASESVGKHMLEACNNNLEMAVTMFLDGGG,soluble
12,SMGRRCQAQVSRRISFSASHRLYSKFLSDEENLKLFGKCNNPNGHGHNYKVVVTVHGEIDPATGMVMNLADLKKYMEEAIMQPLDHKNLDMDVPYFADVVSTTENVAVYIWDNLQKVLPVGVLYKVKVYETDNNIVVYKGE,soluble
13,MFKSVAKLGKSPIFYLNSQRLIHIKTLTTPNENALKFLSTDGEMLQTRGSKSIVIKNTDENLINHSKLAQQIFLQCPGVESLMIGDDFLTINKDRMVHWNSIKPEIIDLLTKQLAYGEDVISKEFHAVQEEEGEGGYKINMPKFELTEEDEEVSELIEELIDTRIRPAILEDGGDIDYRGWDPKTGTVYLRLQGACTSCSSSEVTLKYGIESMLKHYVDEVKEVIQIMDPEQEIALKEFDKLEKKLESSKNTSHEK,soluble
14,MSLGIVIYGTRVIYPAEKKEVVVQLVNQGEQASLVQSWIDDGNTSLPPEKIQVPFMLTPPVARVAAESGQQIKIKKMPNSLPDNKESLFYLNVLDIPPNSQENAGKNVLKFAMQNRIKLIWRPSRIAAVTKDSFQRIGLFRSNKAVIMKNDTANWITVTDVKAGNTKINDQTIMLPPLSTQNINMKYASTSQYEVTIIDDNGNYISSKMNVKEGHHHHHH,soluble
15,HGNQLTAYTLRLGDNCLVLSQRLGEWCGHAPELEIDLALANIGLDLLGQARNFLSYAAELAGEGDEDTLAFTRDERQFSNLLLVEQPNGNFADTIARQYFIDAWHVALFTRLMESRDPQLAAISAKAIKEARYHLRFSRGWLERLGNGTDVSGQKMQQAINKLWRFTAELFDADEIDIALSEEGIAVDPRTLRAAWEAEVFAGINEATLNVPQEQAYRTGGKKGLHTEHLGPMLAEMQYLQRVLPGQQW,soluble
16,MEFGRNPLSMTSTKPTLLNVLDDVGEAALHAIPKVDDITSHKIYVIAVQPVSFSDIESQAVKQDASSPNNCCCSCMHGVLRFFAELCCNCCAGCVQGICQG,not soluble
17,MTATHDTIRLAEIAAKAAAEKLATNIAVIDVSDVMAISEVFVLASADNERQVRSIVEEIEDMLTAEGEEPKRREGNRENRWVLLDYGMLVIHVQRNTERDFYGLDRLYQDCPLIEVEGIDTMARPEEWAQDVDVRTVESLDEIPLAGEEPADEEF,not soluble
18,MSLKLVEILVLGQVLRLNVPIEQEELLRQAARNLDILVSEMKEKTGLIQLDRVLSIVALNLSFELSQEKNKTAKIEEVLRTGIQQLDHSLENIRVTKEPH,soluble
19,MKVGIIGKQGRLGRVLQAILDENGFDVVENNWDIAFLSVPIGAAISYIEKYDGPFIEVSSVKTPFKKYAGRIVSIHPLFGPASYKDGVHRTVLFIKDISMPEYRDLIAEMFRGYEIVDTTADVHDKEMAKSLALPYAVAIISKNIDTAFRTKSFDTFKGIVRILENENEEVMLDTINKNPYAQYMYDIVKNLGMVIQMAGDPLEHHHHHH,not soluble
20,MPKISSRDGGRPAQRTVNPIIVTRRGKIARLESGLTPQEAQIEDLVFLRKVLNRADIPYLLIRNHKNRPVLAINIELRAGLERALAAACATEPMYAKTIDEPGLSPVLVATDGLSQLVDPRVVRLYRRRIAPGGFRYGPAFGVELQFWVYEETVIRCPVENSLSRKVLPRNEITPTNVKLYGYKWPTLDGMFAPHASDVVFDIDMVFSWVDGSDPEFRARRMAQMSQYVVGEGDDAEARIRQIDELKYALRSVNMFAPWIRRIFIATDSTPPPWLAEHPKITIVRAEDHFSDRSALPTYNSHAVESQLHHIPGLSEHFLYSNDDMFFGRPLKASMFFSPGGVTRFIEAKTRIGLGANNPARSGFENAARVNRQLLFDRFGQVITRHLEHTAVPLRKSVLIEMEREFPEEFARTAASPFRSDTDISVTNSFYHYYALMTGRAVPQEKAKVLYVDTTSYAGLRLLPKLRKHRGYDFFCLNDGSFPEVPAAQRAERVVSFLERYFPIPAPWEKIAADVSRRDFAVPRTSAPSEGA,soluble
21,MAANIQQQFGEQLLRAAQVVEEQIDQEMNKLENLEEDDLEVIRRQRMEQMKKAQKDRIEMLSHGHGKYEEVADEKEFFEATKKSDKVVCLFYLPGNFRCKIVDKHFEILARKHVGTRFIHVNAEKVHFLTTRLNIRVIPSIAIVVKQQTVDYIRGFDELGGKDEFTTETMENRLARSEVLTVEKKHTAPAKKKIIRSGVEEYDNEEDW,not soluble
22,MGSDKIHHHHHHVSNGAATRVRRSREKILGAAESVFLQHGFLGTNMDVIADTAGVSKQTVYAHFKSKEALFIDVVEAMTGGAAEEIGEDIEDVFGDRKAEDYLLEVAIDQLTVVLTPRLMQLRRMVIGEVERFPELGRSLYVNGPIRSITRLTRACAHYTRIGELITPDPQAAATQFNWIVMGAPTNAAMLLGDAGIPTSAQLQAHATEAVRIFLCAYGAKQMHPR,not soluble
23,MSLKSHRYMEVSFTKYRINLKYSFGISRSSNNYYDVAFVFIKDKGIIGRGEAAPSKRYGESIDYIIKLLESGISLPKNSYDKESVWKHVKPQLGGIKSLEAAFNMAIWDWWGQKQKKPVYELLNIKVNNLPKTSFTIAIGNMNEIERKIEEAKPYSILKVKLGTPKNDKKIITEIRKLTDKLIRVDANEGWDLDMAIKMSKWLADRNVEFIEQPFPASKIDQTSILKKKSPLDIFADENSINSNDIPSLEGVFDGINIKLMKCGSIEEGYKMIKLAREFDLKIMLGCMVESSIEGHHHHHH,soluble
